{"source": "patent US20250257332A1", "about": "(MONASH UNIVERSITY, published 2025)", "binders": {"B1": {"name": "human NAMPT cytokine finger (hNAMPTcif; NAMPT402-491) (ligand)", "chain": "SYVVTNGLGINVFKDPVADPNKRSKKGRLSLHRTPAGNFVTLEEGKGDLEEYGQDLLHTVFKNGKVTKSYSFDEIRKNAQLNIELEAAHH", "notes": "also called hNAMPTnif"}}, "molecular_target": "T1, recombinant mouse CCR5 (MyBioSource) (mouse, UniProt P51682 1-354, limits assumed)", "T1 construct": "Coated on ELISA plates at 20 nM; also called mrCCR5", "T1 sequence (P51682 whole entry)": "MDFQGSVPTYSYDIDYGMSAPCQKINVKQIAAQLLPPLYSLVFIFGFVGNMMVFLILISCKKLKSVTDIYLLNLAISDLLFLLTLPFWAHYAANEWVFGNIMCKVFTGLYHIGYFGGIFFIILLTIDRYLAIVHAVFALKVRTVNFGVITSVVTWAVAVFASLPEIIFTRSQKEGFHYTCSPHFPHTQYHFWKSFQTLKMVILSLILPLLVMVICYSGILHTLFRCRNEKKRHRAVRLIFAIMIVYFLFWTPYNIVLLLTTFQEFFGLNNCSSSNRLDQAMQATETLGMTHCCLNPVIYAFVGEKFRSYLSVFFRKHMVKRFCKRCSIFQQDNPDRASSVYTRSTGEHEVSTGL", "experiment": "competition ELISA: hNAMPTcif 0-100 nM against 100 nM hrNAMPT(1) on coated recombinant mouse CCR5", "description": "hrNAMPT competitive binding to mrCCR5: ELISA plates (Medium binding, Greiner Bio-One) were coated with 1% BSA or 20 nM of recombinant mouse CCR5 (MyBioSource) in PBS overnight at 4° C. Then, wells were blocked for 1 h at room temperature with 1% BSA in PBS containing 0.05% Tween-20 (PBS-T). Wells were washed 3 times with PBS-T and further incubated with hNAMPTcif at increasing concentration (0 nM to 100 nM) for 1 h in PBS-T with 0.1% BSA containing 100 nM hrNAMPT (1) (Peprotech). Bound hrNAMPT (1) molecules were detected using a biotinylated antibody for NAMPT and HRP-streptavidin (Human PBEF/Visfatin DuoSet ELISA, R&D Systems). Signals obtained on BSA-coated wells were used to remove non-specific binding for each hrNAMPT concentrations to obtain specific binding values. Specific binding data were fitted by non-linear regression with Prism 7 to obtain the half maximal inhibitory concentration (IC50) of hNAMPTnif using A450nm=A450nmMin+(A450nmMax−A450nmMin)/(1+10\\hat{ }(X-LogIC50))."}
{"binder": "B1", "values": [{"measurement": "IC50", "result": 21.5, "unit": "nM"}]}
